According to paper PMC4374754 (2015):

B1: wild-type E. coli RecA protein, fluorescein-labelled (natural protein)
chain: MAIDENKQKALAAALGQIEKQFGKGSIMRLGEDRSMDVETISTGSLSLDIALGAGGLPMGRIVEIYGPESSGKTTLTLQVIAAAQREGKTCAFIDAEHALDPIYARKLGVDIDNLLCSQPDTGEQALEICDALARSGAVDVIVVDSVAALTPKAEIEGEIGDSHMGLAARMMSQAMRKLAGNLKQSNTLLIFINQIRMKIGVMFGNPETTTGGNALKFYASVRLDIRRIGAVKEGENVVGSETRVKVVKNKIAAPFKQAEFQILYGEGINFYGELVDLGVKEKLIEKAGAWYSYKGEKIGQGKANATAWLKDNPETAKEIEKKVRELLLSNPNSTPDFSVDDSEGVAETNEDF
modifications: fluorescein (Fluorescein-EX Protein Labeling Kit); labelled residues not stated
B2: RecA D112R, fluorescein-labelled (natural protein)
chain: AIDENKQKALAAALGQIEKQFGKGSIMRLGEDRSMDVETISTGSLSLDIALGAGGLPMGRIVEIYGPESSGKTTLTLQVIAAAQREGKTCAFIDAEHALDPIYARKLGVDIRNLLCSQPDTGEQALEICDALARSGAVDVIVVDSVAALTPKAEIEGEIGDSHMGLAARMMSQAMRKLAGNLKQSNTLLIFINQIRMKIGVMFGNPETTTGGNALKFYASVRLDIRRIGAVKEGENVVGSETRVKVVKNKIAAPFKQAEFQILYGEGINFYGELVDLGVKEKLIEKAGAWYSYKGEKIGQGKANATAWLKDNPETAKEIEKKVRELLLSNPNSTPDFSVDDSEGVAETNEDF
modifications: fluorescein (Fluorescein-EX Protein Labeling Kit); labelled residues not stated

Target: T1, DNA polymerase V (UmuD′2C) (E. coli, UniProt P04152 1-422; P0AG11 25-139)
T1 chain 1: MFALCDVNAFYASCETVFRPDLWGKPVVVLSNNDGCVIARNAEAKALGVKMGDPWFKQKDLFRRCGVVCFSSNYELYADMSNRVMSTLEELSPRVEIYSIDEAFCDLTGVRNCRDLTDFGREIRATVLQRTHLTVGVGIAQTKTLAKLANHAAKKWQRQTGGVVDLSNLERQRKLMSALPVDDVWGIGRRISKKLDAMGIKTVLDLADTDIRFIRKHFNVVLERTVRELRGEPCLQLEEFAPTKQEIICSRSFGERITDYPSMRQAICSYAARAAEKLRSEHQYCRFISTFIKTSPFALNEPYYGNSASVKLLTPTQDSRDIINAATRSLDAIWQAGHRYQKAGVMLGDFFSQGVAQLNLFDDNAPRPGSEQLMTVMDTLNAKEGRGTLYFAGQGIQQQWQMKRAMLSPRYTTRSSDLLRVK
T1 chain 2: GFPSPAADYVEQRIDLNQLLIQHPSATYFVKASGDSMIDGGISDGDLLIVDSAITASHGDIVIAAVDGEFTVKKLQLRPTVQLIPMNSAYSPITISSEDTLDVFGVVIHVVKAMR
Test: FP; apparent Kd

| Binder | Kd [nM] |
| --- | --- |
| B1 | 239 |
| B2 | 297 |
